target: WDR5Δ23 (WD repeat domain 5, residues 24–334) (human) (UniProt P61964); experiment: fluorescence polarisation

IC50 [µM]	Ki [µM]	Substance
125	27	Ac-2mer (Ac-3mer without Ala3) (peptide)
0.54	0.12	Ac-3mer (Ac-ARA-NH2) (peptide)
0.08	0.02	Ac-H3-3mer (Ac-ART-NH2) (peptide)
14.9	3.2	CHO-3mer (CHO-ARA-NH2) (peptide)
> 300	> 50	H2N-3mer (H2N-ARA-NH2) (peptide)
127	27.3	H3-3mer (H2N-ART-NH2) (peptide)
> 300	> 50	Δ1 (Ac-AR-(N-Me)A-NH2) (peptide)
0.7	0.15	Δ2a (Ac-ARA-CONHMe) (peptide)
30	6.5	Δ2b (Ac-ARA-CONMe2) (peptide)
7.3	1.6	Δ2c (Ac-ARA-COOCH3) (peptide)

— PMC4289617
